Measured values reported in the nanobody polyreactivity screen of Harvey et al. (2022).

Experiment: yeast display, Sf9 membrane polyspecificity reagent, FACS + sequencing; frameworks hold sequencing errors
Outline: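 Polyreactivity labels are assigned by the sorting gate from which each nanobody was recovered. The gates were low and high (top ~1%), set on anti-HA fluorescence for expression and streptavidin fluorescence for reagent binding. Before sorting, galactose-induced (36–48 hours) yeast display cells were stained for 1 hour at 4 °C with 10% biotinylated, detergent-solubilized Sf9 membrane reagent.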

Sequence | polyreactivity (PSR sort gate)
QVQLVESGGGLVQAGGSLRLSCAASGITFIYYAMGWYRQAPGKEREFVAAITFRDGDTYYADSVKGRFTISRDNAKNTVYLQMNSLKPEDTAVYYCADTYWVYYFYPGYDYWGQGTQVTVSS | low polyreactivity
QVQLVESGGGLVQAGGSLRLSCAASGITFIYYTMGWYRQEPGKERELVAAISSRGSSTYYADSVKGRFTISRDNAKNTVYLQMNSLKPEDTAVYYCAAVQYRYGGMDYWGQGTQVTVSS | high polyreactivity
QVQLVESGGGLVQAGGSLRLSCAASGITFKAYAMGWYRQAPGKDRELVAAINTSGARTYYADSVKGRFTISRDNAKNTVYLQMNSLKPEDTAVYYCNARLHQQEGDYWGQGTQVTVSS | low polyreactivity
QVQLVESGGGLVQAGGSLRLSCAASGITFKAYVMGWYRQAPGKERELVAAITRSGGRTYYADSVKGRFTISRDNAKNTVFLQMNSLKPEDTAVYYCAADGPHHGDGYWGQGTQVTVSS | high polyreactivity
QVQLVESGGGLVQAGGSLRLSCAASGITFKFYAMGWYRQAPGKERELVAAIDSRGGSTYYADSVKGRFTISRDNAKNTVYLQMNSLKPEDTSVYYCNKVGRRKLDYWGQGTQVTVSS | high polyreactivity
QVQLVESGGGLVQAGGSLRLSCAASGITFKGNAMGWYRQAPGKERELVAVITWSGGSTYYADSVKGRFTISRDNAKNTVYLQMNSLKPEDTAVYYCAKPWIYGDSQYDYWGQGTQVTVSS | low polyreactivity
QVQLVESGGGLVQAGGSLRLSCAASGITFKSYAMGWYRQAPGKERELVAAIARRGGSTYYADSVKGRFTISRDNAKNTVYLQMNSLKPEDTAVYYCAADSGREPKGPSRLTYWGQGTQVTVSS | high polyreactivity
QVQLVESGGGLVQAGGSLRLSCAASGITFKSYAMGWYRQAPGKERELVAAISRRGGSTYYADSVKGRFTISRDNAKNTVYLQMNSLKPEDTAVYYCAADSGREPKGPSRLTYWGQGTQVTVSS | high polyreactivity
QVQLVESGGGLVQAGGSLRLSCAASGITFKWYAMGWYRQAPGKERELVAAISWSTGSTYYADSVKGRFTISRDNAKNTVYLPMNSLKPEDTAVYYCAARVKRPQTGYDRRYGYWGQGTQVTVSS | high polyreactivity
QVQLVESGGGLVQAGGSLRLSCAASGITFKYNAMGWYRPAPGKERELVAAISSGGNTYYADSVKGRFTISRDNAKNTVYLQMNSLKPEDTAVYYCAAPSYDTLWHDYWGQGTQVTVSS | low polyreactivity
QVQLVESGGGLVQAGGSLRLSCAASGITFKYYAMGWYRQAPGKERELVAAITRGGSTYYADSVKGRFTISRDNAKNTVYLQMNSLKPEDTAVYYCNKARTYELYWGQGTQVTVSS | high polyreactivity
QVQLVESGGGLVQAGGSLRLSCAASGITFKYYVMGWYRQAPGKEREFVAAISWGGGSTYYADSVKGRFTISRDNAKNTVYLQMNSLKPEDTAVYYCAARKGYYTHVQIGYRQSMDYWGQGTQVTVSS | high polyreactivity
QVQLVESGGGLVQAGGSLRLSCAASGITFLDYTMGWYRQAPGKERELVATISKSGGSTYYADSVKGRFTISRDNAKNTVYLQMNSLKPEDTAVYYCAARGFTFWRYYYWGQGTQVTVSS | high polyreactivity
QVQLVESGGGLVQAGGSLRLSCAASGITFLFYAMGWYRQAPGKERELVAAISRSGGSTYYADSVKGRFTISRDNAKNTVYLQMNSLKPEDTAVYYCAARSKDGGGPMYYWGQGTQVTVSS | high polyreactivity
QVQLVESGGGLVQAGGSLRLSCAASGITFLPYAMGWYRQAPGKERELVAAISWRGGRTYYADSVKGRFTISRDNAKNTVYLQMNSLKPEDTAVYYCAAVLVRKSGITYDYWGQGTQVTVSS | high polyreactivity
QVQLVESGGGLVQAGGSLRLSCAASGITFNGYTMGWYRQAPGKEREFVAAITRRGGSTYYADSVKGRFTISRDNAKNTVYLQMNSLKPEDTAVYYCARVTRLGGGDYDYWGQGTQVTVSS | high polyreactivity
QVQLVESGGGLVQAGGSLRLSCAASGITFNIYVMGWYRQAPGKERELVAAITDSGGTTYYADSVKGRFTISRDNAKNTVYLQMNSLKPEDTAVYYCAAEPFYSWWWWGDYWGQGTQVTVSS | high polyreactivity
QVQLVESGGGLVQAGGSLRLSCAASGITFNKNAMGWYRQAPGKEREFVAAITRRGGSTYYADSVKGRFTISRDNAKNTVYLQMNSLKPEDTAVYYCAARPYWSYRRYDYWGQGTQVTVSS | high polyreactivity
QVQLVESGGGLVQAGGSLRLSCAASGITFNPYVMGWYRQAPGTERELVAVITSGGSTNYADSVKGRFTISRDNAKNTVYLQMNSLKPEDTAVYYCNVDRRPYYVWRVTYDYWGQGTQVTVSS | low polyreactivity
QVQLVESGGGLVQAGGSLRLSCAASGITFNSYTMGWYRQAPGKERELVAAISDNGGRTFYADSVKGRFTISRDNAKNTVYLQMNSLKPEDTAVYYCAAVVYSEYYYWGQGTQVTVSS | low polyreactivity
QVQLVESGGGLVQAGGSLRLSCAASGITFNYYAKGSYRQAPGKERELVATINRSGGTTYYADSVKGRFTISRDNAKNTVYLQMNSLKPAVTAVYYCGALSKTRGGYWGQGTQVTVSS | high polyreactivity
QVQLVESGGGLVQAGGSLRLSCAASGITFPANARGWYRQAPGKERELVADISESDGSTYYADSVKGRFTISRDNAKNTVFLQMNSLKPEDTAVYYCAADGTSGTRSDYWGQCTQVTVSS | low polyreactivity

Sequence | polyreactivity (PSR sort gate)
QVQLVESGGGLVQAGGSLRLSCAASGITFPGNAMGWYIQAPGKERELVAVISSGTSTNYADSVKGRFTISRDNAMNTVYLQMNSLKPEDTAVYYCATSLYYYPYYYWGQGTQVTVSS | low polyreactivity
QVQLVESGGGLVQAGGSLRLSCAASGITFPGTVMGWYRQAPGKERELVAAISTSGGSTYYADSVKGRFTISRDNAKNTVYLQMNSLKPEDTAVYYCARQYIRSSYGYWGQGTQVTVSS | low polyreactivity
QVQLVESGGGLVQAGGSLRLSCAASGITFPLYAMGWYRQAPGKETELVASITRGGTTNYADSVKGRFTISRDNAKNTVYLQMNRLKPEDTAVYYCAAEVTRDRGFDYWGQGTQVTVSS | low polyreactivity
QVQLVESGGGLVQAGGSLRLSCAASGITFPVYTMGWYRPAPVKERELVAAITSSGGSTYYADSVKGRFTISRDNAKNTVYLQMISLKQEDTAVYYCAARDYGRHHSYGYWGQGTQVTVSS | high polyreactivity
QVQLVESGGGLVQAGGSLRLSCAASGITFPVYTMGWYRQAPGKERALVAAISRSGGRTYYADSVKGRFTISSDNAKNTVYLQMNSLKPEDTAVYYCAVRQATVTGGGYWGQGTQVTVSS | high polyreactivity
QVQLVESGGGLVQAGGSLRLSCAASGITFPWYAMGWYIQAPGKERELVAAISFSGGSTYYADSVKWRFTISRDNAKNTVYLQMNCLKPVDTAVYYCAAVDGYSYIYAAGDYWGQGTQVTVSS | low polyreactivity
QVQLVESGGGLVQAGGSLRLSCAASGITFPYNAMGWYRQAPGKERELVASINSGDSTNYADSVKGRFTISRDNAKNTVYLQMNSLKPEDTAVYYCAAADYWHYKYDYWGQGTQVTVSS | low polyreactivity
QVQLVESGGGLVQAGGSLRLSCAASGITFPYYAMGWYRQAPGKERELVAAITIRSGRTYYADSVKGRFTISRDNAKNTVYLQMNSLKPEDTAVYYCAARLSNTYGYWGQGTQVTVSS | high polyreactivity
QVQLVESGGGLVQAGGSLRLSCAASGITFQGYTIGWYRQAPGKERELVAAISSNGGRTYYADSVKGRFTISRDNAKNTVYLQMNSLKPEDTAVYYCAARKWRLIVDYWGQGTQVTVSS | high polyreactivity
QVQLVESGGGLVQAGGSLRLSCAASGITFQKYVMGWYRQAPGKEREFVAAITARGGTTYYADSVKGRFTISRDNAKNTVYLQMNSLKPEDTAVYYCAARSYYSGLAYYYWGQGTQVTVSS | high polyreactivity
QVQLVESGGGLVQAGGSLRLSCAASGITFQNYAMGWYRQAPGKERELVAAITGRGGSTYYADSVKGRFTISRDNAKHTVYLQMNSLKPEDTAVYYCATDRRGYRDDYWGQGTQVTVSS | high polyreactivity
QVQLVESGGGLVQAGGSLRLSCAASGITFQRYAMGWYRQAPGKERELVAAISTNGGTTYYADSVKGRFTISRDNAKNTVYLQMNSLKPEDTAVYFCNAESGYVYYIRYNYWGQGTQVTVSS | high polyreactivity
QVQLVESGGGLVQAGGSLRLSCAASGITFQRYAMGWYRQAPGKVRELVAAITRRGGSTYYADSVKGRFTISRDNAKNTVYLQMNSLKPEDTAVYYCAADLFFKARGYDYWGQGTQVTVSS | high polyreactivity
QVQLVESGGGLVQAGGSLRLSCAASGITFQWNAMGWYRQAPGKERELVAAISSGTSTYYADSVKGRFTISRDNAKNTVYLQMNSLKPEDTAVYYCNAVKSWGHPGRYYWGQGTQVTVSS | high polyreactivity
QVQLVESGGGLVQAGGSLRLSCAASGITFQYYAMGWYRQAPGKERELVAAITSSGVSTYYADSVKGRFTISRDNAKNTVYLQMNSLKPEDTAVYYCNTVVRGWSTSAYDYWGQGTQVTVSS | low polyreactivity
QVQLVESGGGLVQAGGSLRLSCAASGITFRDYAMGWYRQAPGKERELVAAISRSVGSTYYADSVKGRFTISRDNAKNTVYLQMNSLKPEDTAVYYCAALSQREFDYWGQGTQVTVSS | high polyreactivity
QVQLVESGGGLVQAGGSLRLSCAASGITFRGNVMGWYRQAPGKERELVAAISGSSGRTYYADSVKGRFTISRDNAKNTVYLQMYSLKPEDTAVYYCAATRTVRSYSIAPALGYWGQGTQVTVSS | high polyreactivity
QVQLVESGGGLVQAGGSLRLSCAASGITFRGYAMGWYRQAPGKERELVAAINSGGSTNYADAVKGRFTISRDNAKNTVYLQMNSLKPDDPAVYYCAADDYPYGNYYWGQGTQVTVSS | high polyreactivity
QVQLVESGGGLVQAGGSLRLSCAASGITFRGYAMGWYRQAPGKERELVADITWNGGSTYYADSVKGRFTISRDNAKNTVYLQMNSLKPEDPAVYYCAADGYRIYWSSYRFYYWGQGTQVTVSS | high polyreactivity
QVQLVESGGGLVQAGGSLRLSCAASGITFRGYAMGWYRQAPGKERELVASITNTDSTYYADSVKGRFTISRDNAKNTVYLQMNSLKPEDTAVYYCAARRGRKYGYWGQGTQVTVSS | high polyreactivity
QVQLVESGGGLVQAGGSLRLSCAASGITFRHYAMGWYRQAPGKEREMVARIRGGGVSTYYADSVKGRFTISRDNAKNTVYLQMNSLKPEDTAVYYCNAVFESWWGDYDYWGQGTQVTVSS | high polyreactivity
